The text below walks through data of the Human Domainome abundance scans (Beltran et al. 2025).

To fix the notation:
B1: Pituitary-specific positive transcription factor 1, residues 130 to 198; numbered along this chain, P28069 (parent)
chain: RELEKFANEFKVRRIKLGYTQTNVGEALAAVHGSEFSQTTICRFENLQLSFKNACKLKAILSKWLEEAE

± gives the uncertainty stated by the source.

In this data set the parent is B1. Put plainly: abundance fitness (aPCA) (normalised: wild type 0, dead -1); higher = more abundant; growth selection in yeast, the domain comes from the species named. The following applies: Homo sapiens.
As to RELEKFANEFKVRRIKLGYTQTNVGEALAAVHGSEFSQTTICTFENLQLSFKNACKLKAILSKWLEEAE [R43T], the abundance fitness is -0.825 ± 0.15.
As for RELEKFANEFKVRRIKLGYTQTNVGEALAAVHGSEFSQTTICVFENLQLSFKNACKLKAILSKWLEEAE [R43V], the figure is -0.966 ± 0.24; as for RELEKFANEFKVRRIKLGYTQTNVGEALAAVHGSEFSQTTICYFENLQLSFKNACKLKAILSKWLEEAE [R43Y], -0.846 ± 0.47; as for RELEKFANEFKVRRIKLGYTQTNVGEALAAVHGSEFSQTTICRIENLQLSFKNACKLKAILSKWLEEAE [F44I], -0.861 ± 0.18.
As for RELEKFANEFKVRRIKLGYTQTNVGEALAAVHGSEFSQTTICRWENLQLSFKNACKLKAILSKWLEEAE [F44W], the figure is -0.909 ± 0.17; as for RELEKFANEFKVRRIKLGYTQTNVGEALAAVHGSEFSQTTICRAENLQLSFKNACKLKAILSKWLEEAE [F44A], -0.958 ± 0.26.
As for RELEKFANEFKVRRIKLGYTQTNVGEALAAVHGSEFSQTTICRVENLQLSFKNACKLKAILSKWLEEAE [F44V], the figure is -0.974 ± 0.12; as for RELEKFANEFKVRRIKLGYTQTNVGEALAAVHGSEFSQTTICREENLQLSFKNACKLKAILSKWLEEAE [F44E], -0.72 ± 0.18.
Consider RELEKFANEFKVRRIKLGYTQTNVGEALAAVHGSEFSQTTICRYENLQLSFKNACKLKAILSKWLEEAE [F44Y], for which the abundance fitness is -0.842 ± 0.13.
As for RELEKFANEFKVRRIKLGYTQTNVGEALAAVHGSEFSQTTICRMENLQLSFKNACKLKAILSKWLEEAE [F44M], the figure is -0.89 ± 0.34; as for RELEKFANEFKVRRIKLGYTQTNVGEALAAVHGSEFSQTTICRNENLQLSFKNACKLKAILSKWLEEAE [F44N], -1.11 ± 0.38.
As for RELEKFANEFKVRRIKLGYTQTNVGEALAAVHGSEFSQTTICRHENLQLSFKNACKLKAILSKWLEEAE [F44H], the figure is -0.565 ± 0.24; as for RELEKFANEFKVRRIKLGYTQTNVGEALAAVHGSEFSQTTICRTENLQLSFKNACKLKAILSKWLEEAE [F44T], -1.06 ± 0.23; as for RELEKFANEFKVRRIKLGYTQTNVGEALAAVHGSEFSQTTICRRENLQLSFKNACKLKAILSKWLEEAE [F44R], -0.871 ± 0.14.
As for RELEKFANEFKVRRIKLGYTQTNVGEALAAVHGSEFSQTTICRPENLQLSFKNACKLKAILSKWLEEAE [F44P], the figure is -0.936 ± 0.19; as for RELEKFANEFKVRRIKLGYTQTNVGEALAAVHGSEFSQTTICRLENLQLSFKNACKLKAILSKWLEEAE [F44L], -0.76 ± 0.077; as for RELEKFANEFKVRRIKLGYTQTNVGEALAAVHGSEFSQTTICRGENLQLSFKNACKLKAILSKWLEEAE [F44G], -1.03 ± 0.2.
As to RELEKFANEFKVRRIKLGYTQTNVGEALAAVHGSEFSQTTICRDENLQLSFKNACKLKAILSKWLEEAE [F44D], the abundance fitness was -0.866 ± 0.28.
The same measure for RELEKFANEFKVRRIKLGYTQTNVGEALAAVHGSEFSQTTICRQENLQLSFKNACKLKAILSKWLEEAE [F44Q]: -0.885 ± 0.28; for RELEKFANEFKVRRIKLGYTQTNVGEALAAVHGSEFSQTTICRFEALQLSFKNACKLKAILSKWLEEAE [N46A]: -0.15 ± 0.1.
As for RELEKFANEFKVRRIKLGYTQTNVGEALAAVHGSEFSQTTICRFEDLQLSFKNACKLKAILSKWLEEAE [N46D], the figure is -0.112 ± 0.098.
As for RELEKFANEFKVRRIKLGYTQTNVGEALAAVHGSEFSQTTICRFEGLQLSFKNACKLKAILSKWLEEAE [N46G], the figure is -0.311 ± 0.094; as for RELEKFANEFKVRRIKLGYTQTNVGEALAAVHGSEFSQTTICRFECLQLSFKNACKLKAILSKWLEEAE [N46C], -0.787 ± 0.42; as for RELEKFANEFKVRRIKLGYTQTNVGEALAAVHGSEFSQTTICRFEFLQLSFKNACKLKAILSKWLEEAE [N46F], -0.798 ± 0.24.
Take RELEKFANEFKVRRIKLGYTQTNVGEALAAVHGSEFSQTTICRFYNLQLSFKNACKLKAILSKWLEEAE [E45Y]: the abundance fitness was -0.993 ± 0.31.
Take RELEKFANEFKVRRIKLGYTQTNVGEALAAVHGSEFSQTTICRFMNLQLSFKNACKLKAILSKWLEEAE [E45M]: the abundance fitness is -0.893 ± 0.31.
The same measure for RELEKFANEFKVRRIKLGYTQTNVGEALAAVHGSEFSQTTICRFSNLQLSFKNACKLKAILSKWLEEAE [E45S]: -0.92 ± 0.1; for RELEKFANEFKVRRIKLGYTQTNVGEALAAVHGSEFSQTTICRFWNLQLSFKNACKLKAILSKWLEEAE [E45W]: -0.762 ± 0.12; for RELEKFANEFKVRRIKLGYTQTNVGEALAAVHGSEFSQTTICRFCNLQLSFKNACKLKAILSKWLEEAE [E45C]: -0.763 ± 0.2.
As for RELEKFANEFKVRRIKLGYTQTNVGEALAAVHGSEFSQTTICRFQNLQLSFKNACKLKAILSKWLEEAE [E45Q], the figure is -0.767 ± 0.23.
With RELEKFANEFKVRRIKLGYTQTNVGEALAAVHGSEFSQTTICRFRNLQLSFKNACKLKAILSKWLEEAE [E45R], the abundance fitness is -0.987 ± 0.18.
The same measure for RELEKFANEFKVRRIKLGYTQTNVGEALAAVHGSEFSQTTICRFGNLQLSFKNACKLKAILSKWLEEAE [E45G]: -0.961 ± 0.17.
RELEKFANEFKVRRIKLGYTQTNVGEALAAVHGSEFSQTTICRFLNLQLSFKNACKLKAILSKWLEEAE [E45L]: the abundance fitness was -0.883 ± 0.14.
Turning to RELEKFANEFKVRRIKLGYTQTNVGEALAAVHGSEFSQTTICRFANLQLSFKNACKLKAILSKWLEEAE [E45A], the abundance fitness was -0.415 ± 0.1.
With RELEKFANEFKVRRIKLGYTQTNVGEALAAVHGSEFSQTTICRFDNLQLSFKNACKLKAILSKWLEEAE [E45D], the abundance fitness is -0.991 ± 0.31.
Regarding RELEKFANEFKVRRIKLGYTQTNVGEALAAVHGSEFSQTTICRFHNLQLSFKNACKLKAILSKWLEEAE [E45H], the abundance fitness is -1.17 ± 0.32.
As for RELEKFANEFKVRRIKLGYTQTNVGEALAAVHGSEFSQTTICRFTNLQLSFKNACKLKAILSKWLEEAE [E45T], the figure is -0.821 ± 0.13; as for RELEKFANEFKVRRIKLGYTQTNVGEALAAVHGSEFSQTTICRFVNLQLSFKNACKLKAILSKWLEEAE [E45V], -0.809 ± 0.15; as for RELEKFANEFKVRRIKLGYTQTNVGEALAAVHGSEFSQTTICRFFNLQLSFKNACKLKAILSKWLEEAE [E45F], -0.878 ± 0.17.
